Measurements as given in paper PMC3825029 (Journal of immunology (Baltimore, Md. : 1950), 2013).

B1: FH19-20 (domain or fragment, human)
chain: GKCGPPPPIDNGDITSFPLSVYAPASSVEYQCQNLYQLEGNKRITCRNGQWSEPPKCLHPCVISREIMENYNIALRWTAKQKLYSRTGESVEFVCKRGYRLSSRSHTLRTTCWDGKLEYPTCAKR

Key:
[1] = target: C3b; assay: SPR
[2] = target: C3dg (UniProt P01024 955-1303); assay: SPR
Chain of C3dg (P01024 955-1303): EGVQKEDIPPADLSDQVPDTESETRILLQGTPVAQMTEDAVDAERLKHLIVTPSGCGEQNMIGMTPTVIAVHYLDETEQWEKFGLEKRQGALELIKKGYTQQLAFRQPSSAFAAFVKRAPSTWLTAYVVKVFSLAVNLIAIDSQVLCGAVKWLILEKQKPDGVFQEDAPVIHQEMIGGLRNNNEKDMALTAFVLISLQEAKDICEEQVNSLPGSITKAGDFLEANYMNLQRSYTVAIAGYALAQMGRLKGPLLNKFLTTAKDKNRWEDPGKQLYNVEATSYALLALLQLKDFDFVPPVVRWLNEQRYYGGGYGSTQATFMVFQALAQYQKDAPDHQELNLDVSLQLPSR

Molecule | Kd [1] | binding result [2]
factor H (from UniProt P08603 19-1231) (natural protein) | 1000 nM | –
mini-FH (from UniProt P08603 1-264; P08603 1107-1231) (designed binder) | 1000 nM | –
B1 | – | binds
